Results on one molecule are retold here after PMC8892339 (2022).

What all share (experiment): SPR, 37 °C
Experiment [1] has as its target CD3ζ ITAM3 C peptide ITAM3 (Homo sapiens, UniProt P20963, C-terminal ITAM tyrosine monophosphorylated peptide; tSH2-GFP fusion).
For experiment [2], the target named is CD3ζ ITAM3 NC peptide ITAM3 (Homo sapiens, UniProt P20963, both ITAM tyrosines phosphorylated peptide; tSH2-GFP fusion).
Experiment [3] concerns the target CD3ζ ITAM3 N peptide ITAM3 (Homo sapiens, UniProt P20963, N-terminal ITAM tyrosine monophosphorylated peptide; tSH2-GFP fusion).

Chain of CD3ζ ITAM3 NC peptide ITAM3 (P20963 128-162): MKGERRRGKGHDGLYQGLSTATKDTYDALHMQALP
Chain of CD3ζ ITAM3 C peptide ITAM3 (P20963 128-162): as above
Chain of CD3ζ ITAM3 N peptide ITAM3 (P20963 128-162): as above

B1: ZAP70 tandem SH2 (protein)
chain: MPDPAAHLPFFYGSISRAEAEEHLKLAGMADGLFLLRQCLRSLGGYVLSLVHDVRFHHFPIERQLNGTYAIAGGKAHCGPAELCEFYSRDPDGLPCNLRKPCNRPSGLEPQPGVFDCLRDAMVRDYVRQTWKLEGEALEQAIISQAPQVEKLIATTAHERMPWYHSSLTREEAERKLYSGAQTDGKFLLRPRKEQGTYALSLIYGKTVYHYLISQDKAGKYCIPEGTKFDTLWQLVEYLKLKADGLIYCLKEACPNSSA
For orientation: Kd means a measure of binding affinity in units of concentration. Read a low Kd as tighter binding. Consider B1, for which the Kd stood at 7.52 µM in experiment [1], 0.0962 µM in experiment [2] and 20.7 µM in experiment [3].
